The experiment concerns the target T1, CD62L (L-selectin) expressed on cells (human, UniProt P14151 39-372).
T1 construct: whole, on cells; also called HT1080-CD62L
T1 sequence: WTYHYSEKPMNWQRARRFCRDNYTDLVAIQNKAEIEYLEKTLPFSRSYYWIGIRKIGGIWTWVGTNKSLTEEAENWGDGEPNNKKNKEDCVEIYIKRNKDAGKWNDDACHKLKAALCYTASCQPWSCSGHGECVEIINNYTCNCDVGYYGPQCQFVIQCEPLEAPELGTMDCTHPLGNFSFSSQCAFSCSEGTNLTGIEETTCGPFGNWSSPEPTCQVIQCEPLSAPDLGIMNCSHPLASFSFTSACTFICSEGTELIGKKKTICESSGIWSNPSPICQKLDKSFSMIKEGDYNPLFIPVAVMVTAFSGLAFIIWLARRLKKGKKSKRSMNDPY
The experiment can be described thus: competition and binding assay on PBMC, flow cytometry. On the technique in general: In flow cytometry, cells or beads pass a laser one at a time.

B1: CD62L specific antibody derived from the same clone (parental antibody) (antibody, V domains shown)
VH: EVKLVESGGGLVKPGGSLKLSCAASGFTFSSYAMSWVRQTPEKRLEWVASISSGGSTYYPDSVKGRFTISRDNARNILYLQMSSLRSEDTAMYYCARDDDGYYDYWGQGTTLTVSS
VL: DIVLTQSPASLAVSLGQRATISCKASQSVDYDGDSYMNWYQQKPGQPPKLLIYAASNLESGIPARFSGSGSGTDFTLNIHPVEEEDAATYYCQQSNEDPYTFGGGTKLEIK
Take B1: the binding result is given as “binds”.

The values are drawn from patent US20220064674A1 (MILTENYI BIOTEC B V, published 2022).
